Test results from the supplement of paper PMC10126150.
± gives the standard deviation of the averaged measurements.

Test system: ATP
Test: switch fluorescence ratio, 500 uM ATP over buffer (Cy3 cluster intensity, sum of 5 cycles each) (fold (ratio)); higher = stronger signal-on switching upon ATP binding; sequences stand for … in TCGTCGGCAGCGTCAGATGTGTATAAGAGACAGTTTTTTTTTTTTTTTTTTTTTTTTT…TC
Conditions: aptamer strand: ATP DNA aptamer (quencher-CACCTGGGGGAGTATTGCGGAGGAAGG + anchor), 100 nM annealed; ATP concentration: 500 uM
How it was run: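 Exposure to 500 uM ATP lasted 15 min at 22 °C before imaging, and a selection-buffer image was taken beforehand, for Cy3-labelled switching-strand clusters on a modified Illumina MiSeq flow-cell annealed to 100 nM quencher-labelled ATP aptamer. Five buffer/ATP cycles were run with NaOH stripping and re-annealing between them. The fluorescence ratio per cluster is summed target-cycle over summed buffer-cycle Cy3 intensity, averaged per switch-domain sequence. Clusters outside 100-1000 RFU were excluded.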

Row | Sequence | switch fluorescence ratio
1 | TAGGCTCTTT | 0.9777 ± 0.008
2 | AAGTCGGTGT | 0.988 ± 0.027
3 | TGTGGGAGCT | 1.04 ± 0.07
4 | ACATTGTTAT | 1.07 ± 0.1
5 | TTAAGGCCCG | 1.01 ± 0.012
6 | TCCGCTTTTT | 1.1 ± 0.15
7 | CGTCGGAGGC | 0.986 ± 0.019
8 | CTAAGGGGCA | 1 ± 0.019
9 | GTGTTAATTA | 0.989 ± 0.021
10 | AATGTAATTA | 1.01 ± 0.011
11 | ACCGGGCCGA | 1.04 ± 0.016
12 | TTAAAGGGCT | 0.982 ± 0.044
13 | AGCAGGGGGG | 1.06 ± 0.067
14 | CATCTGGGGG | 1.04 ± 0.054
15 | GAAAGTCTGT | 1.07 ± 0.087
16 | TTTCGATTTT | 0.993 ± 0.04
17 | GGATGTAGGG | 0.999 ± 0.029
18 | TGGGTGACGG | 0.958 ± 0.036
19 | GAGTTAATTG | 1.01 ± 0.043
20 | CAGGGGTGGT | 1.01 ± 0.039
21 | GGAGGGGGAG | 0.9817 ± 0.0084
22 | GATGTAACTT | 1.012 ± 0.0061
23 | GTGGGCGGGG | 0.979 ± 0.031
24 | TAGTCTGTTC | 1.01 ± 0.045
25 | TTTTTTTCCT | 1.02 ± 0.066
26 | TTCGGAGTCA | 1.1 ± 0.019

Row | Sequence | switch fluorescence ratio
27 | ATTTGTAGGT | 0.9967 ± 0.0019
28 | ATTGGGGCGG | 0.9842 ± 0.0054
29 | TACGTTGACC | 1.26 ± 0.016
30 | CGTTTTATGC | 0.947 ± 0.059
31 | TTGATAGGTC | 1.01 ± 0.04
32 | GGCTGTTAAA | 0.978 ± 0.019
33 | TTGGTTTCAT | 1.009 ± 0.0094
34 | TGTTGCGCTA | 1.02 ± 0.029
35 | ATAACCCCGA | 1.088 ± 0.0075
36 | TCGCCGTTCT | 0.99 ± 0.033
37 | AAGGGTATGT | 0.981 ± 0.029
38 | CGGACCTAGT | 0.9689 ± 0.0042
39 | CAGTGGTTGG | 1.01 ± 0.013
40 | GCTGATTGGC | 1.05 ± 0.13
41 | AAATTAATCC | 1.04 ± 0.038
42 | TTGAACCTTT | 1.02 ± 0.012
43 | GGGAATAGCT | 0.999 ± 0.03
44 | TTAAGTTGGG | 0.989 ± 0.038
45 | GATTTTTTGA | 1.01 ± 0.011
46 | GGCTACTGAG | 1.08 ± 0.066
47 | TTACGGCATG | 1.03 ± 0.014
48 | GCCGGGGAGG | 0.984 ± 0.038
49 | GTTGCCGGTT | 1.026 ± 0.008
50 | GGGTGATTGA | 0.988 ± 0.021
51 | GTATCGAGGA | 0.963 ± 0.047
52 | ATAAAATATT | 0.998 ± 0.022

Row | Sequence | switch fluorescence ratio
53 | ACGTTCCGCT | 1.099 ± 0.003
54 | AGCAACATAA | 1.13 ± 0.022
55 | CGGCTGTGGT | 1.01 ± 0.03
56 | TGGGAATTCC | 1 ± 0.011
57 | TAGAAAGGGA | 1.02 ± 0.039
58 | GTCGTTTGCG | 1.012 ± 0.0048
59 | TTTTGGCCTG | 1.02 ± 0.038
60 | GCGAAAGGGA | 1.02 ± 0.036
61 | GTATACGGCA | 1.01 ± 0.022
62 | TCTGGGCCGG | 0.989 ± 0.034
63 | ATCGGTTCGG | 0.9934 ± 0.0053
64 | GGCTAAGACT | 0.988 ± 0.024
65 | CAATGGAAGG | 1.03 ± 0.025
66 | AATTTTACGA | 1.04 ± 0.024
67 | GGTATCACCT | 1.04 ± 0.034
68 | AAGGACTATT | 1.03 ± 0.011
69 | AGCTTTACGG | 1.04 ± 0.019
70 | ATTTTAGGTT | 0.984 ± 0.03
71 | TTTGCGGAAT | 1.05 ± 0.027
72 | TCAGTTTACT | 0.998 ± 0.025
73 | TTTTTGGGAT | 1.01 ± 0.031
74 | AGGGTATCAG | 1.01 ± 0.039
75 | GGAATTACAG | 1.02 ± 0.046
76 | ATTTTCGGAT | 0.975 ± 0.01
77 | TTAGAGCTAG | 1.07 ± 0.09
78 | TATGAAGCCG | 1.06 ± 0.044

Row | Sequence | switch fluorescence ratio
79 | ATTAAGGAGG | 0.99014 ± 0.00011
80 | GGGTAGGAGG | 0.982 ± 0.013
81 | TTGCTGGTCA | 0.9897 ± 0.0042
82 | GGAGAGGGTT | 1.022 ± 0.0044
83 | CGGGTAACTT | 1.02 ± 0.046
84 | GCAATCTGGT | 1.11 ± 0.026
85 | GGAAAGATGT | 1.01 ± 0.027
86 | AGTGGTGGCG | 0.9 ± 0.082
87 | TGGATTCATG | 0.978 ± 0.06
88 | TCGTGTATAT | 1 ± 0.027
89 | TGGCTTATTT | 0.988 ± 0.031
90 | ATTTTCGTTA | 1.04 ± 0.024
91 | GCGACTTGGG | 1.04 ± 0.054
92 | AGTTAGTTCG | 0.969 ± 0.043
93 | TAGAAAAATG | 0.991 ± 0.029
94 | GGGGCCGAGA | 0.987 ± 0.012
95 | TTGGATAGGG | 1.04 ± 0.067
96 | CTCCCCGGGT | 3 ± 1.1
97 | TTTGCTATAT | 1.18 ± 0.33
98 | GATCGGCTTG | 0.984 ± 0.013
99 | AACAAGTATG | 1 ± 0.044
100 | GTGGGGCAAA | 1 ± 0.043
101 | CTCGTATTTA | 0.976 ± 0.021
102 | TGAGGATGTT | 0.9852 ± 0.0089
103 | ATTTTATGTG | 0.991 ± 0.018
104 | AGAATTAAG | 0.96 ± 0.017

Row | Sequence | switch fluorescence ratio
105 | CAGTACGCGT | 1.04 ± 0.017
106 | TTAGAAGTTT | 1.01 ± 0.015
107 | GACGTACAAC | 1.619 ± 0.0099
108 | ATAGACGGAT | 0.987 ± 0.06
109 | GGTATTATAT | 0.98 ± 0.038
110 | GCGAGTTCTA | 0.963 ± 0.025
111 | TTGCCCGAA | 1.01 ± 0.043
112 | TAGGGGATGC | 1 ± 0.015
113 | AGTATAAAAT | 1.01 ± 0.018
114 | AGAATTTTAG | 1.01 ± 0.016
115 | ACTATTTTTC | 1.016 ± 0.0035
116 | TTTGGGAAGG | 0.985 ± 0.034
117 | ATTTTAGGAC | 1.03 ± 0.025
118 | AGGGCTTGAA | 0.991 ± 0.018
119 | AAGCTTTATG | 1.003 ± 0.0052
120 | ATTGGCTTTA | 1.004 ± 0.0034
121 | CTTTGAATTG | 0.987 ± 0.023
122 | ATCCGCGATT | 4.88 ± 1.1
123 | TTAAGTAGTG | 0.98 ± 0.014
124 | ACGATGTAAA | 0.9574 ± 0.0042
125 | TACGGGTGTG | 1.016 ± 0.003
126 | TCGGGGCGCG | 0.975 ± 0.061
127 | GCAATTCCCG | 2.17 ± 0.049
128 | CTAGGAGGCG | 1.03 ± 0.053
129 | TCTGTTATCA | 1 ± 0.029
130 | ACGGGGGACT | 1.02 ± 0.049

Row | Sequence | switch fluorescence ratio
131 | CCGTGTTGCT | 1.12 ± 0.061
132 | AAAAGGGATT | 0.98 ± 0.012
133 | GGGGAGGGCG | 0.967 ± 0.034
134 | GCCGTAACGG | 0.982 ± 0.014
135 | CTGCATGTGC | 2.14 ± 0.11
136 | CTAGGGGGAT | 0.9962 ± 0.0043
137 | ACCGGGCTTT | 0.988 ± 0.024
138 | AATTTTGGGA | 0.994 ± 0.023
139 | TTTCCTGGGG | 1.04 ± 0.039
140 | ACGCGGAGTA | 0.997 ± 0.038
141 | ATCGTTTACG | 0.994 ± 0.036
142 | GATATGTGGG | 0.986 ± 0.031
143 | GTTCTTGCGG | 0.959 ± 0.022
144 | CCAAGGGGCG | 0.987 ± 0.0077
145 | CGGTTGAATG | 0.98841 ± 0.00073
146 | AGTTTGATAG | 0.998 ± 0.017
147 | GGTGACGCTG | 0.992 ± 0.031
148 | AAAGAAAGGG | 1 ± 0.029
149 | GCTGAAGGCT | 0.962 ± 0.03
150 | TTTAGGCTGG | 0.979 ± 0.022
151 | TTTAGCATGG | 1.01 ± 0.047
152 | GGTAGATATG | 1.021 ± 0.0078
153 | TCGTTAATCA | 0.9835 ± 0.0088
